Reference: the nanobody polyreactivity screen of Harvey et al. (2022)

Assay: yeast display, Sf9 membrane polyspecificity reagent, FACS + sequencing; frameworks hold sequencing errors
Summary of the method: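 Nanobodies from a synthetic yeast display library (Saccharomyces cerevisiae BJ5465), induced 36–48 hours with galactose, were stained 1 hour at 4 °C with 10% biotinylated, detergent-solubilized Sf9 membrane reagent, enriched on streptavidin microbeads, then FACS-sorted. Anti-HA (expression) and streptavidin (reagent binding) fluorescence set low and high (top ~1%) gates. Polyreactivity labels come from the gate of origin. Genes were colony-PCR amplified, MiSeq 2 × 250 sequenced and filtered by CDR length.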

Row | Sequence | polyreactivity (PSR sort gate)
1 | QVQLVESGGGLVQAGGSLRLSCAASGRTFLIYAMGWYRQAPGKERELVAGITRGSTTYADSVKGRFTISRDNAKNTVYLQMNSLKPEDTAVYYCAARNYSVATYGEYDDWGQGTQVTVSS | high polyreactivity
2 | QVQLVESGGGLVQAGGSLRLSCAASGITFYHYAMGWYRQAPGKKRELVASITDGGITKYADSVKGRFTISRDNAKYTVYLQMNSQNPEDTAVYYCAAIAYPDIPTYFDYDSDFFYWGQGTQVTVSS | high polyreactivity
3 | QVQLVESGGGLVQAGGSLRLSCAASGRIFLGNAMGWYRQAPGNERELVADITTDGSTYYADSVKGRFTISRDNAKNTVYLQMNSLKPEVTAVYYCAAGEHPSFRSSYKYDYWGQGTQVTVSS | low polyreactivity
4 | QIQLVESGGGLVQAGGSLRLSCAASGFTFYWYAMGWYRQAPGKEREFVAAIDQSGGSTYYADSVKGRFTISRDNAKNTVYLQMNSLKPEDTAVYYCAARYILWDGDSWTEFDYWGQGTQVTVSS | low polyreactivity
5 | QVQLVESGGGLVQAGGSLRLSCAASGSIFVANAMGWYRQAPGKERELVAAISGSGDRTRYADSVKGRFTISRDNAKNTVYLQMNSLKPEDTAVYYCNARYYASGNLYNYWGQGTQVTVSS | high polyreactivity
6 | QVQLVETGGGLVQAGGSLRLSCAASGFTFYYYAMGWYRQAPGKERELVAAINRSGGSTYYADSLKGRFTISRDNAKNTVYLQMNSLKPEDTAVYYCAAPYVGGSSHGYWGQGTQVTVSS | high polyreactivity
7 | QVQLVESGGGLVQAGGSLRLSCAASGSTIYFYAMGWYRQAPGKERELVAAITRSGSTYYADSVKGRFTISRDNAKNTVYLQLNSLKPEDTAVYYCNADQYYGCRYVYLRHYNYWGQGTQVTVSS | high polyreactivity
8 | QVQLVESGGGLVQAGGSLRLSCAASGITIYYYAMGWYRQAPGTERELVAAISTTVGSTYYADSVKGRFTISRDNAKNTVYLQMNSLKPEDTAVYYCNAYRVYAWIEYNYWGQGTQVTVSS | low polyreactivity
9 | QVQLVESGGGLVQAGGSLRLSCAASGRTFNKYAMGWYRQAPGKERELVAAITGSGGSTYYADSVKGRFTISRDNAKNTVYLEMNSLKPEDTAVYYCAAYAYGVWHSQDGGNYWGQGTQVTVSS | low polyreactivity
10 | QGQHVESGGGLVQAGGSLRLSCAASGSIFAAYAMGWYRQATGKERELVAPIDRGGSTDYADSVKGRFTISRDNAKNTVFLPMNSLKPEDTAVYYCDKGYDYYVRRYYYWGQGTQVTGSS | high polyreactivity
11 | QVQLVESGGGLVQAGGSLRLSCAASGIIFGYYAMGWYRQAPGKVRELVAAISWSGGSTYYADSVKGRFTFSRDNAKNTVYLQMNSLKPEDTAVYYCNAVYVSYTYQQTRSGGYDYWGQGTQVTVSS | high polyreactivity
12 | QVQLVESGGGLVQAGGSLRLSCAASGSNLATYTMGWYRQEPGKERELVAAISFGGSTYYADSVKGRFTISRDNAKNTDYLQMNSLKPEDTAVYYCAVYGDSYWGAYYYSDGYWGQGTQVTVSS | low polyreactivity
13 | QVQLVESGGGLVQAGGSLRLSCAASGYIFDIYAMGWYRQAPGKEMQLVAVITRSGGGTYYADSVKGRFTISRDNAKNTVYLQMNSLKPEDTAVYYCAAESFVYGGSDYDYWGQGTQVTVSS | low polyreactivity
14 | QVQLVESAGGLVQAGGILRLSCAASGRIFPYYDMGWYRQAPGKERELVAAITWNGGSTYYADSVKGRFTISRDNANNTVYLQMNSLKPEDTAVYYCAVEPYYYGEDYWGQGTQVTVSS | low polyreactivity
15 | PVQLVESGGGLVQAGGSLRLSCAASGFTFFYYAMGGYRQGPGKERELVAALNWSGGRTYYADSVKGRFTISRDNAKNTVYLQRNSLKPEDTAVYYCAVDRSWSTRYPAYPGGYWGQGTQVTVSS | high polyreactivity
16 | QVQLVESGGGLVQAGGSLRLSCAASGITFGHYTMGWYRQAPGKEWDLVAAISWSGGSTYYADSVKGRFTISRDNAKYTVYLQMNSLKPEDTAVYYCNRVKRVIASYDSDYWGQGTQVTVSS | low polyreactivity
17 | QVQLVESGGGLVQAGGSLRLSCAASGYTFQGYAMGWYRQAPGKERELVAGISRSGGRTYYADSVKGRFTISRDNAKNTVYLQMNSLKPEDTAVYYCAASYQVRYDYWGQGTQVTVSS | high polyreactivity
18 | QVQLVESGGGLVQAGGSLRLSCAASGFTLAYYAMGWSRQAPGKERELVAAISWSGDTTYYADSVKGRFTISRDNAKNTVYLQMNSLKPEDTAVYYCAADYYLWGQGTQVTVSS | high polyreactivity
19 | QVQLVESGGGLVQAGGSRRLSCAASGNTFYANVMGWYRQAPGKERELVASITWSGGSTYYADSVKGRFTISRDNAKNTVYLQMNSLKPEDTAVYYCATSGDRLVWGQGTQVTVSS | low polyreactivity
20 | QVQLVESGGGLVQAGGSLRLSCAASGRIFRLYAMGWYRQAPGKERELVAAISKSGGSTYYADSVKGRFTISRDNAKYTVYLQMNSLNPEDTAVYYCAADYRTHGGYVGTFDYWGQGTQVTVSS | low polyreactivity
21 | QVQLVESGGGIVQAGGSLRLSCAASGIIIAVYAMGWYRQAPGKERELVAAISWSSGNTYYADSVKGRFTISRENAKNTVYLQMNSLNPEDTAVYYCAAVSRYKYDYWGQGTQVTVSS | high polyreactivity
22 | QVQLVESGGGVVQAGVTLRLSCAASGRIFHYNAMGWYRQAPGKEREMVAAFTWIGGSTYADSVKGRFTISRDNSKNSVYLLMNSLKPEDTAVYYFNARYIYRFDFWGQGTQVTVSS | low polyreactivity

Row | Sequence | polyreactivity (PSR sort gate)
23 | QFQLVESGGGLFQAGGSLRLSCAAYGRISLRNGMGWYRQAPGKERELVAAISRGGSTYYADSVKGRFTISRDNAKNTVYLQMNSLKPEDTAVYYCNADIRPIYGDDDYWGQSTQVTVSS | low polyreactivity
24 | QVQLVESGGGLVQAGGSLRLSCAASGFTLDWYAMGWYRQAPGKERELVAAIWSAGTTYYADSVKGRFTISRDNAKNTVYLQMNSLKPEDTAVYYCATVSDYDFGLYDYWGQGSQVTVSS | low polyreactivity
25 | QVQLVESGGGLVQAGGSLRLSCAASGFIIVRYAMGWYRQAPGKERELVAAITRSGGSTYYADSVKGRFTISRDNAKNTVYLQMNSLKPEDTAVYYCNAYRQGFTYARMDYWGQGTQVTVSS | high polyreactivity
26 | QVHLVESGGGLVQAGGSLRLSCAASGRTFYPFGMGWYRQATGKERELVATITYSGARTYYADTVKGRFTISRDNAKNTVYLQMNILKPEDTAVYYCAAGYYWGIGTGFDYWGQGTQVTVSS | high polyreactivity
27 | QVQLVAGGGLVQAGGSLRLSCAASGSIFYSNAMGWYRQAPGKERELVAAISFSGGSTYYADSVKGRFTISRDNAKNTVYLQMNSLKPEDTAVYYCAAEFYKRKFGPFEYWGQGTQVTVSS | low polyreactivity
28 | QVQLVESGGGLVLAGGSLRLSCAASGSIFWVNAMGWYRQAPGKERELVAAINYSDGSTSYADSVKGRFTISRDIAKNTVYLQMNSLKPEDTAVYYCNAESFELMYYWGQGTQVTVSS | low polyreactivity
29 | QVQLVESGGGLVQAGGSLRLSCAASGFIFWYNAMGWYRQAPGKERELVASISGSGGSTYYADSVKGRFTISRDNAKNTVYLQMNSLKPEDTAVYYCAVYFFSFWGQGTQVTVSS | low polyreactivity
30 | QVQLVESVGGIVQAGGSLRLSCAASGSTRYNAMGWYIQAPGKERELVAYIRGNAGSTYYADSVKGRFTISRDNAKNTVYLQMNSLKPEDTAVYYCNARYWYRYGGYKPVGGYYWGQGTQVTVSS | high polyreactivity
31 | QDQLGESGGGLVQAGGSLRLSCPASGFTVSNNVMGWSRQAPGKERELVADITWSGDGTYYADSVKGRFTISRDNAKKSVYLQMNSLKTEDTAVYYCNARYGKEYDYWGQGTQVTVSS | low polyreactivity
32 | QVQLVESGGGIFQEGGSLRLSCAASGLIFRSYDMGWYRQAPGKERELVAAITDLFWSTYYADSVKGRFTISRDNAKNTVYLQMYSLKPEDTAVYYCARDDWVYTNVEMDYWGQVTQVTVSS | high polyreactivity
33 | QVQLVESGGGLVQAGGSLRLSCAASGSTFAYYTMGWYRQAPGKERELVAAITWSGGRTFYADSVKGRFTISRDNAKNTVYLQMNSLKPEDTAVYYCNTDDSHRPPRTPDDYNYWGQGTQVTVSS | high polyreactivity
34 | QVQLVESGGGLVQAGGSLRLSCAASGRIFRVYTMGWYIQAPGKERELVAAISRGGTTTYADSVKGRFTISRDNAKNTVYLQMNSLKPEYTAVYYCNARGWFRGEFDYWGQGTQVTVSS | high polyreactivity
35 | QVQLVESGGGLVQAGGSLRLSCAASGRTFHRYVMGWYRQAPGKERELVAAISKSGGRTYYADSVKGRFTISRDNAKNTVYLQMNSLKPEDTAVYYYNARTAAGALYDYWGQGTQVTVSS | high polyreactivity
36 | QVQLEESAGGLVQAGGSLRLSCAASGRSFNAYAMGWYRQAPGKERELVATISWRTGSTYYADSVKGRFTISRDNAKNTVYLQMNSLKPEDTAVYYCNAKVGSYGAQGYRFAYNYWGQGTQVTVSS | high polyreactivity
37 | QVQLVESGGGLVQAGGSLRLSCAASGSIFDTYAMGWYRQAPGKERELVAAITQSGDRTYYADSVKGRFTISRDNAKNTVYLQMNSLKPEDTAVYYCYTRRGSAWSCDYWGQGTQVTVSS | low polyreactivity
38 | QVQLVESGGGLVQAGGSLRLICAASGSIFDTYAMGWYRQAPGKERELLATISWSGDSTYYADSVKGRFTISRDNAKNTVYLQMNCLKPEDTAVYYCAADVGQVSDHEDYDYWGQGTQVTVSS | low polyreactivity
39 | QVQLVESGGGLVQAGGSLRLSCAASGSTFDYYGMGWYRQAPGKERELVAAITTSGGSTYYADSVKGRFTISRDNAKNTVYLQMNSLKPEDTAVYYCAAESYWYGTSPYYYLYEYDYWGQGTQVTVSS | high polyreactivity
40 | QVQLVESGGGLVQAGGSLRLSCAASGSIFSFYAMGWYRQAPGKERELVAGIDISGGSTYYADSVKGRFTISRDNAKNTVYLQMNSLKPEDTAVYYCAAAKRTDYFYFVAKSGFRYYSWGQGTQVTVSS | high polyreactivity
41 | QVQLVESGGGLVKAGGSLRLSCAASGRTFRDNAMGWYIQAPGKERELVADIDIDSSTYYADSVKGRFTISRDNAKNTVYLQMNSLKPEDTAVYYCAATFTYLGYWYDYWGQCTQVTVSS | low polyreactivity
42 | QVQLVESGGGLDQAGGSLRLSCAASGSTFHYYAMGWYRQPHGKERELVAVISSGGSTYYADSVKGRFTISRDNAKNTVYLQMNSLKPEDTAVYYCAAEYFLLAGKGYNGGDYYVYDYWGQGTQVTVSS | low polyreactivity
43 | QVQLVESGGGLVQAGGSLRLSCAASGSTFRVNAMGWYRQAPGKERELVAAISSSGGITYYADSVKGRFTISRDNAKNTVYLQMNSLKPEDTAVYYCAKGTVIHVLYDYWGQGTQVTVSS | low polyreactivity
